According to publication PMC3124363:

What was measured:
Cdk2 (Homo sapiens) = Cdk2 (Homo sapiens) (UniProt P24941); settings: cited from earlier work
[1] = target: Cdk2/cyclin A complex (full length human Cdk2 with truncated human cyclin A, residues 173–432) (human) (UniProt P24941); test: ITC
cyclin A (Homo sapiens) = cyclin A (Homo sapiens) (UniProt P20248); settings: cited from earlier work
Sequence of cyclin A (Homo sapiens) (P20248 whole entry): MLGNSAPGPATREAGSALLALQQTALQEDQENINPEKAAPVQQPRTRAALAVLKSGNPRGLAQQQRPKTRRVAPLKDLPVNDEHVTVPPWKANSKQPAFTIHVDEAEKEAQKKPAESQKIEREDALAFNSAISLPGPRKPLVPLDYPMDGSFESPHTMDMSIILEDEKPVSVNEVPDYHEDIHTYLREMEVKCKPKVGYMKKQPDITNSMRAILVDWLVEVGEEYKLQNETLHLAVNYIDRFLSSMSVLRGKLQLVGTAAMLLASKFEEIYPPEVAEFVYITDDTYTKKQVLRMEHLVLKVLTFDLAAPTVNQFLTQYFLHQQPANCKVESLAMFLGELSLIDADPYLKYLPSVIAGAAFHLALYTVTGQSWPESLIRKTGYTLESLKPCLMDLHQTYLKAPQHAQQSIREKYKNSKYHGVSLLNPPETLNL

## p27 D2 (from UniProt P46527)
Cdk2 (Homo sapiens)
  Kd: 70 nM

## sub-domain D1 of p21 (domain or fragment)
[1]
  Kd: 61 nM

## p27 D1 (from UniProt P46527)
Cyclin A (Homo sapiens)
  Kd: 25 nM
